The values below come from US20250171562A1 (ALK ABELL, published 2025).

B1: CIgG4E3A1(G4S)1 (Fc fusion)
chain 1: GPPCPPCPAPEFLGGPSVFLFPPKPKDTLMISRTPEVTCVVVDVSQEDPEVQFNWYVDGVEVHNAKTKPREEQFNSTYRVVSVLTVLHQDWLNGKEYKCKVSNKGLPSSIEKTISKAKGQPREPQVYTLPPCQEEMTKNQVSLWCLVKGFYPSDIAVEWESNGQPENNYKTTPPVLDSDGSFFLYSRLTVDKSRWQEGNVFSCSVMHEALHNHYTQKSLSLSLGKGGGGSDVQLQESGGGLVQAGGSLRLACAASGRTLSSYVVSWFRQAPGKERKFVAAITWSGLSTTYLDSVQGRFTISRDNTKDTVYLQMNSLKPQDTAIYYCAAGPNIPSILRTRESEYAYWGQGTQVTVS
chain 2: GPPCPPCPAPEFLGGPSVFLFPPKPKDTLMISRTPEVTCVVVDVSQEDPEVQFNWYVDGVEVHNAKTKPREEQFNSTYRVVSVLTVLHQDWLNGKEYKCKVSNKGLPSSIEKTISKAKGQPREPQVCTLPPSQEEMTKNQVSLSCAVKGFYPSDIAVEWESNGQPENNYKTTPPVLDSDGSFFLVSRLTVDKSRWQEGNVFSCSVMHEALHNHYTQKSLSLSLGKGGGGSEVQLLESGGGLVQPGGSLRLSCAASGFTFGNYDMAWVRQAPGKRPEWVSSIDTGGDITHYADSVKGRFTISRDNAKNTLYLQMNSLRPEDTAVYWCATDEEYALGPNEFDYYGQGTLVTVSS
B2: CIgG4E4A1(G4S)1 (Fc fusion)
chain 1: GPPCPPCPAPEFLGGPSVFLFPPKPKDTLMISRTPEVTCVVVDVSQEDPEVQFNWYVDGVEVHNAKTKPREEQFNSTYRVVSVLTVLHQDWLNGKEYKCKVSNKGLPSSIEKTISKAKGQPREPQVYTLPPCQEEMTKNQVSLWCLVKGFYPSDIAVEWESNGQPENNYKTTPPVLDSDGSFFLYSRLTVDKSRWQEGNVFSCSVMHEALHNHYTQKSLSLSLGKGGGGSDVQLQESGGGLVQPGGSLRLSCAASGFRFSNYAMRWYRQAPGKEREFVARISSTGFITRYTASVRDRFTISRDNDKNMMYLQLNKLTPQDTAHYYCNAESTDYWGQGTQVTVS
chain 2: B1 chain 2
B3: CIgG4E2A1(G4S)3 (Fc fusion)
chain 1: GPPCPPCPAPEFLGGPSVFLFPPKPKDTLMISRTPEVTCVVVDVSQEDPEVQFNWYVDGVEVHNAKTKPREEQFNSTYRVVSVLTVLHQDWLNGKEYKCKVSNKGLPSSIEKTISKAKGQPREPQVYTLPPCQEEMTKNQVSLWCLVKGFYPSDIAVEWESNGQPENNYKTTPPVLDSDGSFFLYSRLTVDKSRWQEGNVFSCSVMHEALHNHYTQKSLSLSLGKGGGGSGGGGSGGGGSDVQLQESGGGLVQAGGSLRLSCAASGRTISRYAVGWFRRPPAKEREFIGINWSGGSTTYADSAEGRFIISRDNAKNTVYLQMNSLKPEDTAVYYCAVPSVLVQGGISNPSQYDYWGQGTQVTVS
chain 2: GPPCPPCPAPEFLGGPSVFLFPPKPKDTLMISRTPEVTCVVVDVSQEDPEVQFNWYVDGVEVHNAKTKPREEQFNSTYRVVSVLTVLHQDWLNGKEYKCKVSNKGLPSSIEKTISKAKGQPREPQVCTLPPSQEEMTKNQVSLSCAVKGFYPSDIAVEWESNGQPENNYKTTPPVLDSDGSFFLVSRLTVDKSRWQEGNVFSCSVMHEALHNHYTQKSLSLSLGKGGGGSGGGGSGGGGSEVQLLESGGGLVQPGGSLRLSCAASGFTFGNYDMAWVRQAPGKRPEWVSSIDTGGDITHYADSVKGRFTISRDNAKNTLYLQMNSLRPEDTAVYWCATDEEYALGPNEFDYYGQGTLVTVSS
B4: CIgG4E3A1(G4S)3 (Fc fusion)
chain 1: GPPCPPCPAPEFLGGPSVFLFPPKPKDTLMISRTPEVTCVVVDVSQEDPEVQFNWYVDGVEVHNAKTKPREEQFNSTYRVVSVLTVLHQDWLNGKEYKCKVSNKGLPSSIEKTISKAKGQPREPQVYTLPPCQEEMTKNQVSLWCLVKGFYPSDIAVEWESNGQPENNYKTTPPVLDSDGSFFLYSRLTVDKSRWQEGNVFSCSVMHEALHNHYTQKSLSLSLGKGGGGSGGGGSGGGGSDVQLQESGGGLVQAGGSLRLACAASGRTLSSYVVSWFRQAPGKERKFVAAITWSGLSTTYLDSVQGRFTISRDNTKDTVYLQMNSLKPQDTAIYYCAAGPNIPSILRTRESEYAYWGQGTQVTVS
chain 2: B3 chain 2
B5: CIgG4E2A1(G4S)2 (Fc fusion)
chain 1: GPPCPPCPAPEFLGGPSVFLFPPKPKDTLMISRTPEVTCVVVDVSQEDPEVQFNWYVDGVEVHNAKTKPREEQFNSTYRVVSVLTVLHQDWLNGKEYKCKVSNKGLPSSIEKTISKAKGQPREPQVYTLPPCQEEMTKNQVSLWCLVKGFYPSDIAVEWESNGQPENNYKTTPPVLDSDGSFFLYSRLTVDKSRWQEGNVFSCSVMHEALHNHYTQKSLSLSLGKGGGGSGGGGSDVQLQESGGGLVQAGGSLRLSCAASGRTISRYAVGWFRRPPAKEREFIGINWSGGSTTYADSAEGRFIISRDNAKNTVYLQMNSLKPEDTAVYYCAVPSVLVQGGISNPSQYDYWGQGTQVTVS
chain 2: GPPCPPCPAPEFLGGPSVFLFPPKPKDTLMISRTPEVTCVVVDVSQEDPEVQFNWYVDGVEVHNAKTKPREEQFNSTYRVVSVLTVLHQDWLNGKEYKCKVSNKGLPSSIEKTISKAKGQPREPQVCTLPPSQEEMTKNQVSLSCAVKGFYPSDIAVEWESNGQPENNYKTTPPVLDSDGSFFLVSRLTVDKSRWQEGNVFSCSVMHEALHNHYTQKSLSLSLGKGGGGSGGGGSEVQLLESGGGLVQPGGSLRLSCAASGFTFGNYDMAWVRQAPGKRPEWVSSIDTGGDITHYADSVKGRFTISRDNAKNTLYLQMNSLRPEDTAVYWCATDEEYALGPNEFDYYGQGTLVTVSS
B6: CIgG4E3A1(G4S)2 (Fc fusion)
chain 1: GPPCPPCPAPEFLGGPSVFLFPPKPKDTLMISRTPEVTCVVVDVSQEDPEVQFNWYVDGVEVHNAKTKPREEQFNSTYRVVSVLTVLHQDWLNGKEYKCKVSNKGLPSSIEKTISKAKGQPREPQVYTLPPCQEEMTKNQVSLWCLVKGFYPSDIAVEWESNGQPENNYKTTPPVLDSDGSFFLYSRLTVDKSRWQEGNVFSCSVMHEALHNHYTQKSLSLSLGKGGGGSGGGGSDVQLQESGGGLVQAGGSLRLACAASGRTLSSYVVSWFRQAPGKERKFVAAITWSGLSTTYLDSVQGRFTISRDNTKDTVYLQMNSLKPQDTAIYYCAAGPNIPSILRTRESEYAYWGQGTQVTVS
chain 2: B5 chain 2
B7: CIgG4E3A1(RS) (Fc fusion)
chain 1: GPPCPPCPAPEFLGGPSVFLFPPKPKDTLMISRTPEVTCVVVDVSQEDPEVQFNWYVDGVEVHNAKTKPREEQFNSTYRVVSVLTVLHQDWLNGKEYKCKVSNKGLPSSIEKTISKAKGQPREPQVYTLPPCQEEMTKNQVSLWCLVKGFYPSDIAVEWESNGQPENNYKTTPPVLDSDGSFFLYSRLTVDKSRWQEGNVFSCSVMHEALHNHYTQKSLSLSLGKRSDVQLQESGGGLVQAGGSLRLACAASGRTLSSYVVSWFRQAPGKERKFVAAITWSGLSTTYLDSVQGRFTISRDNTKDTVYLQMNSLKPQDTAIYYCAAGPNIPSILRTRESEYAYWGQGTQVTVS
chain 2: GPPCPPCPAPEFLGGPSVFLFPPKPKDTLMISRTPEVTCVVVDVSQEDPEVQFNWYVDGVEVHNAKTKPREEQFNSTYRVVSVLTVLHQDWLNGKEYKCKVSNKGLPSSIEKTISKAKGQPREPQVCTLPPSQEEMTKNQVSLSCAVKGFYPSDIAVEWESNGQPENNYKTTPPVLDSDGSFFLVSRLTVDKSRWQEGNVFSCSVMHEALHNHYTQKSLSLSLGKRSEVQLLESGGGLVQPGGSLRLSCAASGFTFGNYDMAWVRQAPGKRPEWVSSIDTGGDITHYADSVKGRFTISRDNAKNTLYLQMNSLRPEDTAVYWCATDEEYALGPNEFDYYGQGTLVTVSS
B8: CIgG4E4A1(RS) (Fc fusion)
chain 1: GPPCPPCPAPEFLGGPSVFLFPPKPKDTLMISRTPEVTCVVVDVSQEDPEVQFNWYVDGVEVHNAKTKPREEQFNSTYRVVSVLTVLHQDWLNGKEYKCKVSNKGLPSSIEKTISKAKGQPREPQVYTLPPCQEEMTKNQVSLWCLVKGFYPSDIAVEWESNGQPENNYKTTPPVLDSDGSFFLYSRLTVDKSRWQEGNVFSCSVMHEALHNHYTQKSLSLSLGKRSDVQLQESGGGLVQPGGSLRLSCAASGFRFSNYAMRWYRQAPGKEREFVARISSTGFITRYTASVRDRFTISRDNDKNMMYLQLNKLTPQDTAHYYCNAESTDYWGQGTQVTVS
chain 2: B7 chain 2

The target of this assay is T1, recombinant human IgE (human, UniProt P01854-1 1-428).
T1 construct: made in-house (ALK); preloaded on immobilised FcεRIα in the displacement ELISA
T1 sequence (P01854 other isoform, or with tags, fused parts or gaps): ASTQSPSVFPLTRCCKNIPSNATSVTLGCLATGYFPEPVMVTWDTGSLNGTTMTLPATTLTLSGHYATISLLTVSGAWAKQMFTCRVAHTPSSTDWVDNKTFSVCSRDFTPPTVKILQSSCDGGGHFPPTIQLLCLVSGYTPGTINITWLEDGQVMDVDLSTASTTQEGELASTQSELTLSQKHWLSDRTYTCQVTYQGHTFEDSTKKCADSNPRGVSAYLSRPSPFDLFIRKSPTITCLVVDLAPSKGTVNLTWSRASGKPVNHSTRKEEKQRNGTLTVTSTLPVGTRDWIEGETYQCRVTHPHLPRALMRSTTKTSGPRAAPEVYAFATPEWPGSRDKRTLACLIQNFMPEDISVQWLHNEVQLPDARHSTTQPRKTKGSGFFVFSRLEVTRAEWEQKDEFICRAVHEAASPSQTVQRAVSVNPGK
Nature of the assay: IgE-FcεRIα displacement ELISA. An outline of the steps: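 sdAbs at pM–μM were incubated 1 h on preformed complexes of 13 ng/ml recombinant human IgE with avi-tag-biotinylated human FcεRIα captured on streptavidin.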
Background: ELISA stands for enzyme-linked immunosorbent assay.
On to B1, for which the EC50 (usually the concentration that produces a half-maximal response) turned out to be 130 nM and the Max effect turned out to be 85%.
On the same counts, the results for B2 are 130 nM and 85%.
Regarding B3, the EC50 came to 160 nM and the Max effect came out at 75%.
B4: the EC50 stood at 36 nM and the Max effect worked out at 90%.
The matching figures for B5: 410 nM and 65%.
The matching figures for B6: 50 nM and > 95%.
On to B7, for which the Max effect was 30%.
On to B8, for which the Max effect is 40%.
